The text below walks through data of patent publication US20180273587A1 (AILERON THERAPEUTICS, published 2018).

Positions of bridges follow the written chain, without caps; N, C: chain ends. Non-standard residues stand in square brackets, D forms with d. S5 = C=CCCC[C@](C)(N)C(=O)O; Aib = CC(C)(N)C(=O)O

The target in experiment [1] is T1, MCL-1 (UniProt Q07820 172-327, limits assumed).
T1 construct: Target of the Ki columns; also called Myeloid cell leukemia 1
Description: Ki (Table 8); method not stated.

The target of experiment [2] is T2, BCL-2 (UniProt P10415 1-217, limits assumed).
T2 construct: Target of the Ki columns
Kind of experiment: Ki (Table 8); method not stated.

In experiment [3] the target is T3, BCL-XL (UniProt Q07817 1-209).
T3 construct: Target of the Ki columns
Kind of experiment: Ki (Table 8); method not stated.

For experiment [4], the target named is T1, MCL-1. Kind of experiment: inhibitory constant assay (Table 7); method not stated.
Experiment [5] concerns the target T2, BCL-2. Described as above.
Experiment [6] addresses T3, BCL-XL. Described as above.

T2 sequence (P10415 1-217 limits assumed): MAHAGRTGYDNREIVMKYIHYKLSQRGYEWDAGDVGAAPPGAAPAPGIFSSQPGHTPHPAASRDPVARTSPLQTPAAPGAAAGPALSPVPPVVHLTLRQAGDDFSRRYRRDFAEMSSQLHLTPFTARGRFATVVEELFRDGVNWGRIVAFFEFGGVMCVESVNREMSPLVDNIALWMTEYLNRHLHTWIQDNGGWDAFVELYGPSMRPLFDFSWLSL
T1 sequence (Q07820 172-327 limits assumed): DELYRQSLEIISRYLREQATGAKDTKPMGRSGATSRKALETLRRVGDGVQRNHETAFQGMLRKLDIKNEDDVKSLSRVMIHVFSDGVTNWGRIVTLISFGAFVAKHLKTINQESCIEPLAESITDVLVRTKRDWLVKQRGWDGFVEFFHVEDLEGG
T3 sequence (Q07817 1-209): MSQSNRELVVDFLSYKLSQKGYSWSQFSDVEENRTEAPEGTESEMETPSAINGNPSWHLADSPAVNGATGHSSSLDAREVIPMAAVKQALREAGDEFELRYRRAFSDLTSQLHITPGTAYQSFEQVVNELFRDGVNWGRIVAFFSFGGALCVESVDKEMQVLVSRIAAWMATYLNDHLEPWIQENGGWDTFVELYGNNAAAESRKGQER

B1: Cross-linked peptide #14 (peptide)
peptide: Ac-RWIAQALR[S5]IGD[S5]LN[Aib]FYAHH-NH2
modifications: staple 9-13
SMILES: CC[C@H](C)[C@H](NC(=O)[C@H](Cc1c[nH]c2ccccc12)NC(=O)[C@H](CCCNC(=N)N)NC(C)=O)C(=O)N[C@@H](C)C(=O)N[C@@H](CCC(N)=O)C(=O)N[C@@H](C)C(=O)N[C@@H](CC(C)C)C(=O)N[C@@H](CCCNC(=N)N)C(=O)N[C@@]1(C)CCCC=CCCC[C@@](C)(C(=O)N[C@@H](CC(C)C)C(=O)N[C@@H](CC(N)=O)C(=O)NC(C)(C)C(=O)N[C@@H](Cc2ccccc2)C(=O)N[C@@H](Cc2ccc(O)cc2)C(=O)N[C@@H](C)C(=O)N[C@@H](Cc2c[nH]cn2)C(=O)N[C@@H](Cc2c[nH]cn2)C(N)=O)NC(=O)[C@H](CC(=O)O)NC(=O)CNC(=O)[C@H]([C@@H](C)CC)NC1=O
Take B1: the inhibition constant (Ki) – broadly, a dissociation constant, usually derived from enzyme kinetics or from competition with a known ligand – with MCL-1 [1] came to 17 nM; with BCL-2 [2] it was 215 nM; in the experiment with BCL-XL [3] it was 114 nM; with MCL-1 [4], 11 nM; in the experiment with BCL-2 [5], 151 nM; with BCL-XL [6] it was 178 nM.
